Results reported in paper PMC10142772.

Biological target: D. officinale MYB5 (DoMYB5), R2R3-MYB transcription factor (Dendrobium officinale)
Sequence (main, as listed by the source): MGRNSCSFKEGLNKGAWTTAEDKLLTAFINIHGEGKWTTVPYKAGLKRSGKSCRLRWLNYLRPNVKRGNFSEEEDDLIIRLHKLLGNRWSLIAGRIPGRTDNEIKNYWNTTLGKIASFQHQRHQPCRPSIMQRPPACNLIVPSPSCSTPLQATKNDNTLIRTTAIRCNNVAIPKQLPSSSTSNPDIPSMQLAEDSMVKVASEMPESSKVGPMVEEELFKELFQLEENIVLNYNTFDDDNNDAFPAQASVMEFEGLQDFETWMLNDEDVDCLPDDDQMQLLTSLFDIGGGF

dual-luciferase assay in tobacco leaves: activity of the DoCHS promoter on co-expression of DoMYB5 and DobHLH24, against the control group (times higher than the control group): 4.8
dual-luciferase assay in tobacco leaves: activity of the DoDFR promoter on co-expression of DoMYB5 and DobHLH24, against the control group (times higher than the control group): 2.5
Substance: D. officinale bHLH24 (DobHLH24), bHLH transcription factor (natural protein)
